The values below come from patent publication US20040180375A1.

What all share (experiment): cell-based or functional assay
Test [1] deals with human His6-Gαi2 (expressed in Sf9 cells) (human) (UniProt P04899).
Test [2] has as its target rat Gαs (rat) (UniProt P63095).
Test [3] concerns the target GPA1(1-41)-Gαi3 (GPA1-human Gαi3 fusion construct) (yeast; human) (UniProt P08539).
Test [4] deals with GPA1(1-41)-Gαi2 chimera (first 41 amino acids of yeast Gpa1 fused to amino acids 36-356 of human Gαi2) (yeast; human) (UniProt P08539).
In test [5] the target is T1, yeast GPA1 (yeast) (UniProt P08539).
T1 sequence (looked up): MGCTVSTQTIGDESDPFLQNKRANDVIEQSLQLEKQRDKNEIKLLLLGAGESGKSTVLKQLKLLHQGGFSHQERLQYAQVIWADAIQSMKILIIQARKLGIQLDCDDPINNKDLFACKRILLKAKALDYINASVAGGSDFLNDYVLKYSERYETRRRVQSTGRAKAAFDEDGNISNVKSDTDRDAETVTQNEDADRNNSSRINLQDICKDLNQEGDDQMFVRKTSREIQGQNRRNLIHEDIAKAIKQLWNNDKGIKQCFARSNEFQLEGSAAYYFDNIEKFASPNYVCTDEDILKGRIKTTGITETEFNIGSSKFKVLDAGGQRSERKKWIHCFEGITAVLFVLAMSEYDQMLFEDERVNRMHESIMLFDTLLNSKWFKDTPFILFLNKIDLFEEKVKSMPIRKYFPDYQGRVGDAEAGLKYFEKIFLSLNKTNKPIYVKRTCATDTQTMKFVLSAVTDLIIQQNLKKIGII

In test [6] the target is GPA1(1-41)-Gα16(S270P) (GPA1-human Gα16 fusion construct) (yeast; human).

human His6-Gαi2 (expressed in Sf9 cells) (human), sequence (P04899 whole entry): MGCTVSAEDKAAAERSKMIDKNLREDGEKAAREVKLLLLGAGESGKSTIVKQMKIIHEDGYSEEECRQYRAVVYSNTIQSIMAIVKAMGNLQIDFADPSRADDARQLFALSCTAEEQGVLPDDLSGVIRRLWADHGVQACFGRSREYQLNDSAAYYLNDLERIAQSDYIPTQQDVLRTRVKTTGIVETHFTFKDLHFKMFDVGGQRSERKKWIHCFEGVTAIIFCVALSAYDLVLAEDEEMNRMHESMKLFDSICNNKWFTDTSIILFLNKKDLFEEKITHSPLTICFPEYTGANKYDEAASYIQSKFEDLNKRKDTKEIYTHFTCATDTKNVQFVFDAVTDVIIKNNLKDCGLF
rat Gαs (rat), sequence (P63095 whole entry, the tested form may be a part): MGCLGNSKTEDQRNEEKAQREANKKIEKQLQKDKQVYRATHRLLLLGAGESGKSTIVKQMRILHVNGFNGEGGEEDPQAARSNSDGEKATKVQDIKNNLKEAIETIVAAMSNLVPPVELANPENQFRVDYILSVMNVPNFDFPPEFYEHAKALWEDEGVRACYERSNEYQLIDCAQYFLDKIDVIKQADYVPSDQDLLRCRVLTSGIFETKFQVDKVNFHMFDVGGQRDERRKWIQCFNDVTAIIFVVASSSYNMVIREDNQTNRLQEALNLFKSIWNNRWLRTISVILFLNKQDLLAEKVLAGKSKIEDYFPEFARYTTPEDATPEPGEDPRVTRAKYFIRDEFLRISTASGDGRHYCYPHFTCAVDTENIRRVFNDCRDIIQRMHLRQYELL

B1: GST-AGS1 (N-terminal GST fusion of AGS1, expressed in yeast from the CUP1 promoter on plasmid pYEX-4T1) (protein, not shown: a dimerising Fc or GST)
chain: MKLAAMIKKMCPSDSELSIPAKNCYRMVILGSSKVGKTAIVSRFLTGRFEDAYTPTIEDFHRKFYSIRGEVYQLDILDTSGNHPFPAMRRLSILTGDVFILVFSLDNRDSFEEVQRLRQQILDTKSCLKNKTKENVDVPLVICGNKGDRDFYREVDQREIEQLVGDDPQRCAYFEISAKKNSSLDQMFRALFAMAKLPSEMSPDLHRKVSVQYCDVLHKKALRNKKLLRAGSGGGGGDPGDAFGIVAPFARRPSVHSDLMYIREKASAGSQAKDKERCVIS
In turn, B1 came in with a GTPγS binding to purified Gα (filter binding of GTPγ35S, 40 min) in test [1] of 25%.

B2: AGS1 (Activator of G protein Signaling, human, 281 amino acids) (protein)
chain: MKLAAMIKKMCPSDSELSIPAKNCYRMVILGSSKVGKTAIVSRFLTGRFEDAYTPTIEDFHRKFYSIRGEVYQLDILDTSGNHPFPAMRRLSILTGDVFILVFSLDNRDSFEEVQRLRQQILDTKSCLKNKTKENVDVPLVICGNKGDRDFYREVDQREIEQLVGDDPQRCAYFEISAKKNSSLDQMFRALFAMAKLPSEMSPDLHRKVSVQYCDVLHKKALRNKKLLRAGSGGGGGDPGDAFGIVAPFARRPSVHSDLMYIREKASAGSQAKDKERCVIS
In the case of B2, the β-galactosidase activity (FUS1p-lacZ reporter in yeast, AGS1, galactose) (relative β-galactosidase activity) is 6.4 in test [2]; 63.3 in test [3]; 125 in test [4]; 7.6 in test [5]; 22.5 in test [6].
